The source of these data is the RNAGym collection of RNA variant scans (doi:10.1073/pnas.2313332121).

Variants at the floor of the assay were thinned out.

The chains are these.
B1: TPR 5TU (parent)
chain: GGAUCUUCUCGAUCUAACAAAAAAGACAAAUCUGCCACAAAGCUUGAGAGCAUCUUCGGAUGCAGAGGCGGCAGCCUUCGGUGGCGCGAUAGCGCCAACGUUCUCAACUAUGACACGCAAAACGCGUGCUCCGUUGAAUGGAGUUUAUCAUG

The variants in this data set derive from B1. The data set can be described thus: polymerase ribozyme fitness, log enrichment relative to wild type (log ratio); higher = more active; in vitro selection for triplet polymerase activity. In outline: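 The heterodimeric triplet polymerase ribozyme's subunits were each mutagenized into PCR-built libraries and transcribed. Every library was selected once, in triplicate, by annealing with a biotinylated primer, the partner subunit and triplets, incubating frozen at −7 °C, gel-excising extended constructs, capturing on streptavidin beads and running RT-PCR. Input and output libraries were Illumina-sequenced, with genotypes kept only at ≥10 input reads and ≥1 read per output. Fitness, from inverse-variance-weighted replicate averages, is the base-2 logarithm of genotype enrichment over wild-type enrichment.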
For the variant C8G G48A C54U C69G C85G A91C, the “polymerase ribozyme fitness (log ratio)” value is not above -4.2.
Next, U7C A41C C51U C54G U55A G58A C76G C87G C103A C125U: not above -4.2; C8A A64G U82A A91U A97C A122G A142C: not above -4.2.
Next, U7C G50U: -2.42; U7A C51U: -3.25; C8G A23G A40G G67C C99U U102G U127C G143C: not above -4.2.
In the case of C8U G84U G117U G140C U146G it was not above -4.2.
Consider C8G A29G G50U C85U C125A, for which the “polymerase ribozyme fitness (log ratio)” value is not above -4.2.
Next, C8G G70C G80A A91U U104C A120U: not above -4.2; U7G C93U A98G G141A: -3.82.
On to U6G C54A C75G C85A C105U A106U U111A G136U, for which the “polymerase ribozyme fitness (log ratio)” value is not above -4.2.
Next, U9A C87U: -2.96; C8G A21G C27A A73C G92C U104G A150U: not above -4.2.
In the case of U7G A41U U53A C54U U56A C57A G71U C95A G112C, the “polymerase ribozyme fitness (log ratio)” value is not above -4.2.
Next, U6G G11A A19C A21C A24G C36G U56A U82A A142C: not above -4.2.
Next, U7A C32G A66C G68A C87A G128U G136C: not above -4.2; U6G A52C U55C G71A G86C A119U: not above -4.2.
As for C8A G94C, the “polymerase ribozyme fitness (log ratio)” value was -3.7.
As to U6G A12U G42C C76U C96G U134G U146G, the “polymerase ribozyme fitness (log ratio)” value is not above -4.2.
Next, U6G C57A U61A G65A A121U G126A: -3.12; U9C A52C G67A G74U G86U C93U A115G: not above -4.2.
Next, U6G A73G: -0.521.
As for U6G A73C, the “polymerase ribozyme fitness (log ratio)” value was -2.87.
In the case of C8G C10A A40C G67A C75A C87A it was not above -4.2.
In the case of U9C A28G C38A C54G G88C C103A it was not above -4.2; in that of U7C A16U G50A C54A C57A C72G C85G A98U G141A, not above -4.2.
Regarding U6G A21U U45C A66U G141A U151A, the “polymerase ribozyme fitness (log ratio)” value is not above -4.2.
Next, U6G C38U C43U A91U C95G U102G: not above -4.2.
Next, C8A U15A A19U A28U A30U C38A A39C A40U G59U C99G A107U C114U: not above -4.2; U7G C32U C38U U55G C57U U61A G62A G88A U146C: not above -4.2; C8A A29C A37C A47U A119G: not above -4.2.
Take C8U A20G A26U U56A C96U C105U G128C: the “polymerase ribozyme fitness (log ratio)” value was not above -4.2.
Next, C8A U15G U55A A73U A91G G140A: not above -4.2.
With C8A C87U, the “polymerase ribozyme fitness (log ratio)” value was -3.89.
In the case of C8A C87G it was not above -4.2.
In the case of U9A G83A it was -4.06.
In the case of C8A A12C it was -3.07; in that of U9C A28G C57A C96G U151C, not above -4.2; in that of C8G C96A, -4.07.
In the case of U6G A20C C38U C57U U61A C76G G94C A97G U145G, the “polymerase ribozyme fitness (log ratio)” value was not above -4.2.
Next, C8U U13C C14A A20U G50C C63A G71A C79G G92U A119C G141A: not above -4.2; U6G G92U C105A C114G A142U: not above -4.2; U6G G46U G88C U134A A138G: not above -4.2.
As to U9A G94A, the “polymerase ribozyme fitness (log ratio)” value is -3.69.
Next, C8G A41C C93G C103A A120U A142U: not above -4.2; U6G A52G A106C C116A: -0.169; U7A A17U A24G U56A C93U U134A: not above -4.2.
In the case of C8U G84A it was -2.87.
Next, C8G G81C G86A C132A: not above -4.2.
Regarding U7G C72U C87A A98U A138C, the “polymerase ribozyme fitness (log ratio)” value is not above -4.2.
Next, U7G U55A A91U U130A G141C: not above -4.2; C8U C32A G58C C93G G94U C95U G117U A138U: not above -4.2; U7C C8U U45A G68C C87G A91C: not above -4.2.
Next, U9C C36A U45A A47C A49U A52G U55G G68U G80U G94U: not above -4.2; C8A A24U G71A G84A G143C: not above -4.2.
In the case of U9C A52C U61A C96G C103G A142C it was -4.
For the variant U7A C14G U31C G86A, the “polymerase ribozyme fitness (log ratio)” value was not above -4.2.
On to C8G C10A C93U A106U A107U C108U U148G, for which the “polymerase ribozyme fitness (log ratio)” value is not above -4.2.
Next, U6G A21U C93U U127G: -3.85; C8U C63U G80A G84C C96U: not above -4.2.
In the case of C8A A19C C72A C95A C96G C131U G136C it was not above -4.2; in that of C8A A19U G48C U56A C93U G140A A142G A150C, not above -4.2.
Next, C8U C38U C69A G83A A91C C118U: not above -4.2; C8U A21U A28C A52U G94U C95G A97C A122U G126U G136A: not above -4.2; C8G A24C G65U C87A C95U C105G: not above -4.2.
For U7A U61A A119U, the “polymerase ribozyme fitness (log ratio)” value is not above -4.2.
In the case of U9A C27A A40U, the “polymerase ribozyme fitness (log ratio)” value was not above -4.2.
Next, U7A G11C A52G A89C A91G C95U U111C C131U: not above -4.2; U7A A30U C32U C43U A60U C96A A107U: -3.92.
Turning to U6G A12U A22C G59C U61G A73U, the “polymerase ribozyme fitness (log ratio)” value was not above -4.2.
U7A C32U C35U U90C G141C G143C: the “polymerase ribozyme fitness (log ratio)” value was not above -4.2.
Next, C8A A41U C76U A98G C116G G143C: not above -4.2; C8A C96A: -3.5; C8U U13C C27A G50A U61A G62U C93U A106C A110G C125G: not above -4.2.
Next, C8U A39U G48U U134A: not above -4.2.
In the case of C8G A22U C35G C69G G70C G92A it was not above -4.2; in that of U7G U55A, -3.28.
As for U9A A47G C69A G94A C96G U101C A121C A138G, the “polymerase ribozyme fitness (log ratio)” value is not above -4.2.
In the case of C8U A40U it was -3.42; in that of U7C C38A, -2.38.
In the case of C8G G80C it was not above -4.2; in that of U7G A17U A52C C85U C116A, -3.83; in that of C8A U9G A12C A29U A30U G88U C93A A107G, not above -4.2.
